{"source": "paper PMC11441081", "about": "(2024)", "key": {"[1]": {"target": "T1, EIV-HA protein (hemagglutinin of equine influenza virus H3N8), wild type (equine influenza virus (H3N8))", "experiment": "SPR"}, "[2]": {"target": "T1, EIV-HA protein (hemagglutinin of equine …)", "experiment": "SPR", "remark": "listed apart in the source"}, "[3]": {"target": "T1, EIV-HA protein (hemagglutinin of equine …)", "experiment": "ELISA"}}}
{"binder": "H81 recombinant antibody (equine Ig (Fab)2 recombined with homo Ig Fc) (antibody, V domains shown) VH: QVQLKESGPGLVKPSQTLSLTCTVSGLSLSSDAVGWVRQAPGKGLEWVACIYGDESTYYNPALKSRAGITKDTSKSQVYLTLNSLTGEDTAVYYCAGLVYEYYAGTWTIVFELKYWGQGILVTVSS VL: QSLTQPASVSGTLGQTVTISCSGSSSNIGHRYSTVGWYQQIPGTAPKTLIYGSDKRASGVPDRFSGSKSGNTATLTISGLQAEDEADYYCGSYYYASSDSSGGAFGGGTHLTIA", "values": [{"measurement": "Kd", "setting": "[1]", "value": 10.1, "unit": "nM"}, {"measurement": "koff", "setting": "[2]", "value": "8.52e-05", "unit": "s⁻¹"}, {"measurement": "EC50", "setting": "[3]", "value": 4.2, "unit": "ng/mL"}]}
